According to US20040171794A1 (DYAX, published 2004):

Biological target: T1, human neutrophil elastase (human, UniProt P08246 30-247, limits assumed)
T1 construct: also called HNE; hNE
T1 sequence (looked up): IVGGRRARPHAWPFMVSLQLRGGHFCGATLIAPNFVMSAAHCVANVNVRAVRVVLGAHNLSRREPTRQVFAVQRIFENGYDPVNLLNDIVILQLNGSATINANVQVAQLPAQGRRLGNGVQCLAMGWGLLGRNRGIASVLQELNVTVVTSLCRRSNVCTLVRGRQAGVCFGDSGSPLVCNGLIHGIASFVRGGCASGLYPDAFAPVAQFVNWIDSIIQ
Test: equilibrium inhibition of HNE activity on a fluorogenic peptide substrate, tight-binding model, 24 h incubation at 30 C
Experimental: Inhibition of hNE was determined at 30° C. in 50 mM HEPES, pH 7.5, 150 mM NaCl, and 0.1% Triton X-100. […] Residual enzymatic activities were determined from the relative rates of substrate hydrolysis. The hydrolysis reaction was initiated by addition of N-methoxysuccinyl-Ala-Ala-Pro-Val-7-amino-methylcoumarin (SEQ ID No.: 41) as substrate. Enzymatic cleavage of this substrate releases the methylcoumarin moiety with concomitant increase the sample fluorescence. The rate of substrate hydrolysis was monitored at an excitation of 360 nm and an emission of 460 nm. Plots of the percent remaining activity versus inhibitor concentration were fit by nonlinear regression analysis to Equation 1 to determine equilibrium dissociation constants.

binding result: binds
B1: DX-890 (peptide)
chain: EACNLPIVRGPCIAFFPRWAFDAVKGKCVLFPYGGCQGNGNKFYSEKECREYCGVP
notes: also called native DX-890
